From patent US20150132821, “Systems and Methods for Improving Nuclease Specificity and Activity” (Georgia Tech Research Corporation, published 2015)

Legend:
[1] = biological target: T1, S-07 (S7) NK-TALEN (synthetic, UniProt B2SU53 SEQ:41-1041); assay: cell_activity; monomer SSA assay; settings: tags: 3xFLAG, NLS, FokI
T1 chain: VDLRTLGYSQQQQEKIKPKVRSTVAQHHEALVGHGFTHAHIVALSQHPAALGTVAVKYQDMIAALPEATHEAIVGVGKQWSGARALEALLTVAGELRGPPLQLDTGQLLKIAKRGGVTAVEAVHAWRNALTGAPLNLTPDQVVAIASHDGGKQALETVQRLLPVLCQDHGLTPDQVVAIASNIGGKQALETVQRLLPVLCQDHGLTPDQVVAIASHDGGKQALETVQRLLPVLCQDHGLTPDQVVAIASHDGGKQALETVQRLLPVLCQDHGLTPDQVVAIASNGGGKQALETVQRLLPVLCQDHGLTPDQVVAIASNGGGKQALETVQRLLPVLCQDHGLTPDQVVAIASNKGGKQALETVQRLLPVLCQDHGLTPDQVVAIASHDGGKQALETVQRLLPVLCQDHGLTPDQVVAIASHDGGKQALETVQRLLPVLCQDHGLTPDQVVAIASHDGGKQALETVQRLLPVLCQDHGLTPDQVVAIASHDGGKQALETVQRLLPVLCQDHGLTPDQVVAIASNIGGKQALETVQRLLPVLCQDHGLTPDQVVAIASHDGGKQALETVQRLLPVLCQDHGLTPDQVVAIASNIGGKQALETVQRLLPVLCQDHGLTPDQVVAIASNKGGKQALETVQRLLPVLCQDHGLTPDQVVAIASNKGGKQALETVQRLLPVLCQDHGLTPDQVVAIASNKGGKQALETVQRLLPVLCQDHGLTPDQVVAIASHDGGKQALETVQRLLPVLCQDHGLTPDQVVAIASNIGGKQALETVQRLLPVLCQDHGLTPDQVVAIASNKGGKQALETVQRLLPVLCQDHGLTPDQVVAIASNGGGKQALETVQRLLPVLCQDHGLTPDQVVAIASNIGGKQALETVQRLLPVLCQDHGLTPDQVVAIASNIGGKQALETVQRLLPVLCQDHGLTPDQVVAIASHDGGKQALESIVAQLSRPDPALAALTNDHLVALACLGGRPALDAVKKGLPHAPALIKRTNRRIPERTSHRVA
Protocol: (§1) HEK293T cells (ATCC) were cultured in Dulbecco's Modified Eagle Medium (Sigma) supplemented with 10% FBS and 2 mM L-Glutamine. Cells were seeded 80,000 per well of a 24-well plate. After 4 h, cells were transfected with 200 ng of the TALEN plasmid (or 100 ng of each TALEN for hetero-dimeric pairs) and 10 ng of the corresponding SSA reporter plasmid using calcium phosphate transfection. Three control transfections were included: 1) 200 ng of an empty TALEN backbone and 10 ng of an SSA reporter plasmid, 2) 200 ng of an empty TALEN backbone and 10 ng of a pEGFP plasmid, and 3) 100 ng of each GFP-ZFN and 10 ng of an SSA reporter plasmid. Cells were harvested 48 h after transfection. The percentages of pEGFP-transfected samples expressing GFP were determined using an Accuri C6 flow cytometer, as an indication of transfection efficiency. Genomic DNA was isolated using QuickExtract DNA extraction solution (Epicentre) as described20. Sample were PCR amplified for 35 cycles (95° C., 30 s; 60° C., 30 s; 72° C., 60 s) in a 50 μl reaction that contains 2 μl of the extracted DNA, 2.5 μl of each 10 μM target region amplification primer (SSA-Cell-F4, 5′-[…] (SEQ ID NO: 183); SSA-Cell-R4, 5′-[…] (SEQ ID NO: 184)), and 25 μl of GoTaq green master mix (Promega). PCR reactions were then separated on 2% agarose gels and the percentages of SSA-repaired products were quantified using ImageJ.

[2] = biological target: T2, S-02 (S2) NK-TALEN (synthetic, UniProt Q56830 SEQ:41-735); assay: cell_activity; monomer SSA assay; settings: tags: 3xFLAG, NLS, FokI
T2 chain: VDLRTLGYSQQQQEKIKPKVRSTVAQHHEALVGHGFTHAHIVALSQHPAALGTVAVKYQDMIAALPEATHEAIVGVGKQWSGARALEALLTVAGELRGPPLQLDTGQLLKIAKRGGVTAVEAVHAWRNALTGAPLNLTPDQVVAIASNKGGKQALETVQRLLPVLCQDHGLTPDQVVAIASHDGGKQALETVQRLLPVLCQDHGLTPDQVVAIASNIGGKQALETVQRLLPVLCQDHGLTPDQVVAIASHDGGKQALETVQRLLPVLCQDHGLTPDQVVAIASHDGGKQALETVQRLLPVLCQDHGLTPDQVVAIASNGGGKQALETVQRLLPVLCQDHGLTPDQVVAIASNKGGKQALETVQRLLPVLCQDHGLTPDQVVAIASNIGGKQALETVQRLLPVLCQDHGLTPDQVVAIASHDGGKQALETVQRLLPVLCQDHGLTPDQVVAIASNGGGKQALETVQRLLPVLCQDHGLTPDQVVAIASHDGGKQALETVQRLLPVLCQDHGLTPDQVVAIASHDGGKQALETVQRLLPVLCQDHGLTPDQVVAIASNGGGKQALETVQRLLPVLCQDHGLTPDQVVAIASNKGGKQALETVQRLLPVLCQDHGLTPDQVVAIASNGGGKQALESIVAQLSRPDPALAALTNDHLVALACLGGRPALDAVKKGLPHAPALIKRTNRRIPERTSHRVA
Protocol: as §1

Row | Binder | activity [1] [% SSA] | activity [2] [% SSA]
1 | S-07 half-site (dsDNA) DNA 1: CACCTTGCCCCACAGGGCAGTAAC DNA 2: GTTACTGCCCTGTGGGGCAAGGTG | 7.5 | –
2 | S-02 half-site (dsDNA) DNA 1: GCACCTGACTCCTGT DNA 2: ACAGGAGTCAGGTGC | – | 23
